In the supplement of paper PMC12338614:
± gives the uncertainty stated by the source.

B1: library; numbered along this chain (parent)
chain: MEVVDPQQLGMFTEGELMSVGMDTFIHRIDSTEVIYQPRRKRAKLIGKYLMGDLLGEGSYGKVKEVLDSETLCRRAVKILKKKKLRRIPNGEANVKKEIQLLRRLRHKNVIQLVDVLYNEEKQKMYMVMEYCVCGMQEMLDSVPEKRFPVCQAHGYFCQLIDGLEYLHSQGIVHKDIKPGNLLLTTGGTLKISDLGVAEALHPFAADDTCRTSQGSPAFQPPEIANGLDTFSGFKVDIWSAGVTLYNITTGLYPFEGDNIYKLFENIGKGSYAIPGDCGPPLSDLLKGMLEYEPAKRFSIRQIRQHSWFRKKHPPAEAPVPIPPSPDTKDRWRSMTVVPYLEDLHGADEDEDLFDIEDDIIYTQDFTVPGQVPEEEASHNGQRRGLPKAVCMNGTEAAQLSTKSRAEGRAPNPARKACSASSKIRRLSACKQQ

Variants of: B1
Assay: STK11 functional score (HeLa growth suppression), rescaled enrichment; synonymous median = 1, nonsense median = 0 (normalised score)
Conditions: with HeLa; variant type: missense
Method in brief: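 Functional scores are post/pre-selection log ratios corrected to wild type, rescaled to synonymous and nonsense medians, merged over codons and replicate transfections, and given bootstrapped error. They come from POPCode libraries of codon-optimised STK11 integrated by Bxb1 at an AAVS1 landing pad in HeLa, three regions each transfected three times, with BFP-negative, mCherry-positive integrants sorted by FACS and tiled gDNA amplicons sequenced on NextSeq.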

In order of falling STK11 functional score:
1. MEVVDPQQLGMFTEGELMSVGMDTFIHRIDSTEVIYQPRRKRAKLIGKYLMGDLLGEGSYGKVKEVLDSETLCRRAVKILKKKKLRRIPNGEANVKKEIQLLRRLRHKNVIQLVDVLYNEEKQKMYMVMEYCVCGMQEMLDSVPEKRFPVCQAHGYFCQLIDGLEYLHSQGIVHKDIKPGNLLLTTGGTLKISDLGVAEALHPFAADDTCRTSQGSPAFQPPEIANGRDTFSGFKVDIWSAGVTLYNITTGLYPFEGDNIYKLFENIGKGSYAIPGDCGPPLSDLLKGMLEYEPAKRFSIRQIRQHSWFRKKHPPAEAPVPIPPSPDTKDRWRSMTVVPYLEDLHGADEDEDLFDIEDDIIYTQDFTVPGQVPEEEASHNGQRRGLPKAVCMNGTEAAQLSTKSRAEGRAPNPARKACSASSKIRRLSACKQQ [L228R]  1.68 ± 0.26
2. MEVVDPQQLGMFTEGELMSVGMDTFIHRIDSTEVIYQPRRKRAKLIGKYLMGDLLGEGSYGKVKEVLDSRTLCRRAVKILKKKKLRRIPNGEANVKKEIQLLRRLRHKNVIQLVDVLYNEEKQKMYMVMEYCVCGMQEMLDSVPEKRFPVCQAHGYFCQLIDGLEYLHSQGIVHKDIKPGNLLLTTGGTLKISDLGVAEALHPFAADDTCRTSQGSPAFQPPEIANGLDTFSGFKVDIWSAGVTLYNITTGLYPFEGDNIYKLFENIGKGSYAIPGDCGPPLSDLLKGMLEYEPAKRFSIRQIRQHSWFRKKHPPAEAPVPIPPSPDTKDRWRSMTVVPYLEDLHGADEDEDLFDIEDDIIYTQDFTVPGQVPEEEASHNGQRRGLPKAVCMNGTEAAQLSTKSRAEGRAPNPARKACSASSKIRRLSACKQQ [E70R]  1.67 ± 0.32
3. MEVVDPQQLGMFTEGELMSVGMDTFIHRIDSTEVIYQPRRKRAKLIGKYLMGDLLGEGSYGKVKEVLDSETLCRRAVKILKKKKLRRIPNGEANVKKEIQLLRRLRHKNVIQLVDVLYNEEKQKMYMVMEYCVCGMQEMLDSVPEKRFPVCQAHGYFCQLIDGLEYLHSQGIVHKDIKPGNLLLTTGGTLKISDLGVAEALHPFAADDTCRTSQGSPAFQPPEIANGLDTFSGFKVDIWSAGVTLYNITTGLYPFEGDNIYKLFENIGKGSYAIPGDCGPPLSDLLKGMLEYEPAKRFSIRQIRQHSWFRKKHPPAEAPVPIPPSPDTKDRWRSMTVVPYLEDLHGADEDEDLFDIEDDIIYTQDFTVPGQVPEEEADHNGQRRGLPKAVCMNGTEAAQLSTKSRAEGRAPNPARKACSASSKIRRLSACKQQ [S378D]  1.5 ± 0.17
4. MEVVDPQQLGMFTEGELMSVGMDTFIHRIDSTEVIYQPRRKRAKLIGKYLMGDLLGEGSYGKVKEVLDSETLCRRAVKILKKKKLRRIPNGEANVKKEIQLLRRLRHKNVIQLVDVLYNEEKQKMYMVMEYCVCGMQEMLDSVPEKRFPVCQAHGYFCQLIDGLEYLHSQGIVHKDIKPGNLLLTTGGTLKISDLGVAEALHPFAADDTCRTSQGSPAFQPPEIANGLDTFSGFKVDIWSAGVTLYNITTGLYPFEGDNIYKLFENIGKGSYAIPGDCGPPLSDLLKGMLEYEPAKRFSIRQIRQHSWFRKKHPPAEAPVPIPPSPDTKDRWRSMTVVPYLEDLHGADEDEDLFDIEDDIIYTQDFTVPGQVPEEEASHNGQRRGLPKAVCMNGTEAAQLSTKSRAEGRAPNPARKACFASSKIRRLSACKQQ [S419F]  1.46 ± 0.18
5. MEVVDPQQLGMFTEGELMSVGMDTFIHRIDSTEVIYQPRRKRAKLIGKYLMGDLLGEGSYGKVKEVLDSETLCRRAVKILKIKKLRRIPNGEANVKKEIQLLRRLRHKNVIQLVDVLYNEEKQKMYMVMEYCVCGMQEMLDSVPEKRFPVCQAHGYFCQLIDGLEYLHSQGIVHKDIKPGNLLLTTGGTLKISDLGVAEALHPFAADDTCRTSQGSPAFQPPEIANGLDTFSGFKVDIWSAGVTLYNITTGLYPFEGDNIYKLFENIGKGSYAIPGDCGPPLSDLLKGMLEYEPAKRFSIRQIRQHSWFRKKHPPAEAPVPIPPSPDTKDRWRSMTVVPYLEDLHGADEDEDLFDIEDDIIYTQDFTVPGQVPEEEASHNGQRRGLPKAVCMNGTEAAQLSTKSRAEGRAPNPARKACSASSKIRRLSACKQQ [K82I]  1.3 ± 0.54
6. MEVVDPQQLGMFTEGELMSVGMDTFIHRIDSTEVIYQPRRKRAKLIGKYLMGDLLGEGSYGKVKEVLDSETLCRRAVKILKKKKLRRIPNGEANVKKEIQLLRRLRHKNVIQLVDVLYNEEKQKMYMVMEYCVCGMQEMLDSVPEKRFPVCQAHGYFCQLIDGLEYLHSQGIVHKDIKPGNLLLTTGGTLKISDLGVAEALHPFAADDTCRTSQGSPAFQPPEIANGLDTFSGFKVDIWSAGVTLYNITTGLYPFEGDNIYKLFENIGKGSYNIPGDCGPPLSDLLKGMLEYEPAKRFSIRQIRQHSWFRKKHPPAEAPVPIPPSPDTKDRWRSMTVVPYLEDLHGADEDEDLFDIEDDIIYTQDFTVPGQVPEEEASHNGQRRGLPKAVCMNGTEAAQLSTKSRAEGRAPNPARKACSASSKIRRLSACKQQ [A273N]  1.3 ± 0.24
7. MEVVDPQQLGMFTEGELMSVGMDTFIHRIDSTEVIYQPRRKRAKLIGKYLMGDLLGEGSYGKVKEVLDSETLCRRAVKILKKKKLRRIPNGEANVKKEIQLLRRLRHKNVIQLVDVLYNEEKQKMYMVMEYCVCGMQEMLDSVPEKRFPVCQAHGYFCQLIDGLEYLHSQGIVHKDIKPGNLLLTTGGTLKISDLGVAEALHPFAADDTCRTSQGSPAFQPPEIANGLDTFSGFKVDIWSAGVTLYNITTGLYPFEGDNIYKLFENIGKGSYAIPGDCGPPLSDLLKGMLEYEPAKRFSIRQIRQHSWFRKKDPPAEAPVPIPPSPDTKDRWRSMTVVPYLEDLHGADEDEDLFDIEDDIIYTQDFTVPGQVPEEEASHNGQRRGLPKAVCMNGTEAAQLSTKSRAEGRAPNPARKACSASSKIRRLSACKQQ [H313D]  1.17 ± 0.29
8. MEVVDPQQLGMFTEGELMSVGMDTFIHRIDSTEVIYQPRRKRAKLIGKYLMGDLLGEGSYGKVKEVLDSETLCRRAVKILKKKKLRRIPNGEANVKKEIQLLRRLRHKNVIQLVDVLYNEEKQKMYMVMEYCVCGMQEMLDSVPEKRFPVCQAHGYFCQLIDGLEYLHSQGIVHKDIKPGNLLLTTGGTLKISDLGVAEALHPFAADDTCRTSQGSPAFQPPEIANGLDTFSGFKVDIWSAGVTLYNITTGLYPFEGDNIYKLFENIGKGSYAIPTDCGPPLSDLLKGMLEYEPAKRFSIRQIRQHSWFRKKHPPAEAPVPIPPSPDTKDRWRSMTVVPYLEDLHGADEDEDLFDIEDDIIYTQDFTVPGQVPEEEASHNGQRRGLPKAVCMNGTEAAQLSTKSRAEGRAPNPARKACSASSKIRRLSACKQQ [G276T]  1.16 ± 0.21
9. MEVVDPQQLGMFTEGELMSVGMDTFIHRIDSTEVIYQPRRKRAKLIGKYLMGDLLGEGSYGKVKEVLDSETLCRRAVKILKKKKLRRIPNGEANVKKEIQLLRRLRHKNVIQLVDVLYNEEKQKMYMVMEYCVCGMQEMLDSVPEKRFPVCQAHGYFCQLIDGLEYLHSQGIVHKDIKPGNLLLTTGGTLKISDLGVAEALHPFAADDTCRTSQGSPAFQPPEIANGLDTFSGFKVDIWSAGVTLYNITTGLYPFEGDNIYKLFENIGKGSYAIPGDCGPPLSDLLKGMLEYEPAKRFSIRQIRQHSWFRKKHPPAEAPVPIPPSPDTKDRWRSLTVVPYLEDLHGADEDEDLFDIEDDIIYTQDFTVPGQVPEEEASHNGQRRGLPKAVCMNGTEAAQLSTKSRAEGRAPNPARKACSASSKIRRLSACKQQ [M335L]  1.03 ± 0.18
10. MEVVDPQQLGMFTEGELMSVGMDTFIHRIDSTEVIYQPRRKRAKLIGKYLMGDLLGEGSYGKVKEVLDSETLCRRAVKILKKKKLRRIPNGEANVKKEIQLLRRLRHKNVIQLVDVLYNEEKQKMYMVMEYCVCGMQEMLDSVPEKRFPVCQAHGYFCQLIDGLEYLHSQGIVHKDIKPGNLLLTTGGTLKISDLGVAEALHPFAADDTCRTSQGSPAFQPPEIANGLDTFYGFKVDIWSAGVTLYNITTGLYPFEGDNIYKLFENIGKGSYAIPGDCGPPLSDLLKGMLEYEPAKRFSIRQIRQHSWFRKKHPPAEAPVPIPPSPDTKDRWRSMTVVPYLEDLHGADEDEDLFDIEDDIIYTQDFTVPGQVPEEEASHNGQRRGLPKAVCMNGTEAAQLSTKSRAEGRAPNPARKACSASSKIRRLSACKQQ [S232Y]  0.917 ± 0.16
11. MEVVDPQQLGMFTEGELMSVGMDTFIHRIDSTEVIYQPRRKRAKLIGKYLMADLLGEGSYGKVKEVLDSETLCRRAVKILKKKKLRRIPNGEANVKKEIQLLRRLRHKNVIQLVDVLYNEEKQKMYMVMEYCVCGMQEMLDSVPEKRFPVCQAHGYFCQLIDGLEYLHSQGIVHKDIKPGNLLLTTGGTLKISDLGVAEALHPFAADDTCRTSQGSPAFQPPEIANGLDTFSGFKVDIWSAGVTLYNITTGLYPFEGDNIYKLFENIGKGSYAIPGDCGPPLSDLLKGMLEYEPAKRFSIRQIRQHSWFRKKHPPAEAPVPIPPSPDTKDRWRSMTVVPYLEDLHGADEDEDLFDIEDDIIYTQDFTVPGQVPEEEASHNGQRRGLPKAVCMNGTEAAQLSTKSRAEGRAPNPARKACSASSKIRRLSACKQQ [G52A]  0.893 ± 0.16
12. MEVVDPQQLGMFTEGELMSVGMDTFIHRIDSTEVIYQPRRKRAKLIGKYLMGDLLGEGSYGKVKEVLDSETLCRRAVKILKKKKLRRIPNGEANVKKEIQLLRRLRHKNVIQLVDVLYNEEKQKMYMVMEYCVCGMQEMLDSVPEKRFPVCQAHGYFCQLIDGLEYLHSQGIVHKDIKPGNLLLTTGGTLKISDLGVAEALHPFAADDTCRTSQGSPAFQPPEIANGLDTFSGFKVDIWSAGVTLYNITTGLYPFEGDNIYKLFENIGKGSYAIPGDCGPPLSDLLKGMLEYEPAKRFSIRQIRQHSWFRKKHPPAEAPVPIPPSPDTKDRWRSMTVVPYLEDLHGANEDEDLFDIEDDIIYTQDFTVPGQVPEEEASHNGQRRGLPKAVCMNGTEAAQLSTKSRAEGRAPNPARKACSASSKIRRLSACKQQ [D348N]  0.723 ± 0.63
13. MEVVDPQQLGMFTEGELMSVGMDTFIHRIDSTEVIYQPRRKRAKLIGKYLMGDLLGEGSYGKVKEVLDSETLCRRAVKILKKKKLRRIPNGEANVKKEIQLLRRLRHKNVIQLVDVLYNEEKQKMYMVMEYCVCGMQEMLDSVPEKRFPVCQAHGYFCQLIDGLEYLHSQGIVHKDIKPGNLLLTTGGTLKILDLGVAEALHPFAADDTCRTSQGSPAFQPPEIANGLDTFSGFKVDIWSAGVTLYNITTGLYPFEGDNIYKLFENIGKGSYAIPGDCGPPLSDLLKGMLEYEPAKRFSIRQIRQHSWFRKKHPPAEAPVPIPPSPDTKDRWRSMTVVPYLEDLHGADEDEDLFDIEDDIIYTQDFTVPGQVPEEEASHNGQRRGLPKAVCMNGTEAAQLSTKSRAEGRAPNPARKACSASSKIRRLSACKQQ [S193L]  0.696 ± 0.12
14. MEVVDPQQLGMFTEGELMSVGMDTFIHRIDSTEVIYQPRRKRAKLIGKYLMGDLLGEGSYGKVKEVLDSETLCRRAVKILKKKKLRRIPNGEANVKKEIQLLRRLRHKNVIQLVDVLYNEEKQKMYMVMEYCVCGMQEMLDSVPEKRFPVCQAHGYFCQLIDGLEYLHSQGIVHKDIKPGNLLLTTGGTLKISDLGVAEALHPFAADDTCRTSQGSPAFQPPEIANGLDTFSGFKVDIWSAGFTLYNITTGLYPFEGDNIYKLFENIGKGSYAIPGDCGPPLSDLLKGMLEYEPAKRFSIRQIRQHSWFRKKHPPAEAPVPIPPSPDTKDRWRSMTVVPYLEDLHGADEDEDLFDIEDDIIYTQDFTVPGQVPEEEASHNGQRRGLPKAVCMNGTEAAQLSTKSRAEGRAPNPARKACSASSKIRRLSACKQQ [V243F]  0.591 ± 0.095
